Measurements from article PMC4763257, “A replaceable liposomal aptamer for the ultrasensitive and rapid detection of biotin”.

Target: streptavidin (UniProt P22629 25-183)
Experiment: plate binding assay, liposome SRB fluorescence; at least 10-fold over aptamer-free liposomes; displaced by biotin; Streptavidin (10 ug/ml) coated plate, blocked with 1% BSA and 0.01 mg/ml salmon sperm DNA in TBS; 80 ul liposomal aptamer 1 h at RT; washes in TBS-sucrose; pH and salt not given
Conditions: protein: commercial; chain copies: 4; label: SRB-encapsulating liposome

streptavidin, sequence (P22629 25-183): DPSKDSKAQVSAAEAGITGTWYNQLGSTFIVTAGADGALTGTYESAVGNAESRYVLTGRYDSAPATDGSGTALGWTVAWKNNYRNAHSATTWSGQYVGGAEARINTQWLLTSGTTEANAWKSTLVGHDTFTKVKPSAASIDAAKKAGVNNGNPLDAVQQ

Binder | binding result
ATTGACCGCTGTGTGACGCAACACTCAAT (structured_DNA, 3'-TEG-cholesterol) [ST-21 liposomal aptamer] | binds
ATTGACCTCTGTGTGACGCAACACTCAAT (structured_DNA, 3'-TEG-cholesterol) [ST-21M liposomal aptamer] | binds
